Experimental data published in patent publication US20220089698A1.

Assays:
Assay in all cases: cell-based or functional assay
[1] = molecular target: Env from subtype B plasma isolates (panel of 142 HIV-1 pseudotyped viruses)
[2] = molecular target: 152 patient-derived subtype B viruses obtained from pre-ART plasma
[3] = molecular target: HIV-1 envelope glycoprotein gp120 of virus BaL (HIV-1 BaL (lab adapted strain, subtype B))
[4] = molecular target: HIV-1 envelope glycoprotein gp120 of virus CHO77 (HIV-1 subtype B, virus CHO77)
[5] = molecular target: HIV-1 envelope glycoprotein gp120 of virus 92US657 (HIV-1 subtype B, isolate 92US657)
[6] = molecular target: HIV-1 envelope glycoprotein (Env, gp120) of virus 8106 (HIV-1)
[7] = molecular target: HIV-1 envelope glycoprotein (Env, gp120) of virus 1413 (HIV-1)
[8] = molecular target: HIV-1 envelope glycoprotein (Env, gp120) of virus 7576 (HIV-1)
[9] = molecular target: HIV-1 envelope glycoprotein (Env, gp120) of virus VS043 (HIV-1)
[10] = molecular target: HIV-1 envelope glycoprotein (Env, gp120) of virus 8134 (HIV-1)
[11] = molecular target: HIV-1 envelope glycoprotein (Env, gp120) of virus 92HT593 (HIV-1)
[12] = molecular target: HIV-1 envelope glycoprotein (Env, gp120) of virus VS044 (HIV-1)
[13] = molecular target: HIV-1 envelope glycoprotein (Env, gp120) of virus 7141 (HIV-1)
[14] = molecular target: HIV-1 envelope glycoprotein (Env, gp120) of virus 7552 (HIV-1)
[15] = molecular target: HIV-1 envelope glycoprotein (Env, gp120) of virus 8320 (HIV-1)
[16] = molecular target: HIV-1 envelope glycoprotein (Env, gp120) of virus VS046 (HIV-1)
[17] = molecular target: HIV-1 envelope glycoprotein (Env, gp120) of virus VS001 (HIV-1)
[18] = molecular target: HIV-1 envelope glycoprotein (Env, gp120) of virus VS030 (HIV-1)
[19] = molecular target: HIV-1 envelope glycoprotein (Env, gp120) of virus 92US712 (HIV-1)
[20] = molecular target: HIV-1 envelope glycoprotein (Env, gp120) of virus 8110 (HIV-1)
[21] = molecular target: HIV-1 envelope glycoprotein (Env, gp120) of virus VS039 (HIV-1)
[22] = molecular target: HIV-1 envelope glycoprotein (Env, gp120) of virus VS017 (HIV-1)
[23] = molecular target: HIV-1 envelope glycoprotein (Env, gp120) of virus 7051 (HIV-1)
[24] = molecular target: HIV-1 envelope glycoprotein (Env, gp120) of virus 8318 (HIV-1)
[25] = molecular target: HIV-1 envelope glycoprotein (Env, gp120) of virus 92US657 (HIV-1)
[26] = molecular target: HIV-1 envelope glycoprotein (Env, gp120) of virus 8117 (HIV-1)
[27] = molecular target: HIV-1 envelope glycoprotein (Env, gp120) of virus 7103 (HIV-1)
[28] = molecular target: HIV-1 envelope glycoprotein (Env, gp120) of virus VS042 (HIV-1)
[29] = molecular target: HIV-1 envelope glycoprotein (Env, gp120) of virus 7015 (HIV-1)
[30] = molecular target: HIV-1 envelope glycoprotein (Env, gp120) of virus VS049 (HIV-1)
[31] = molecular target: HIV-1 envelope glycoprotein (Env, gp120) of virus VS004 (HIV-1)
[32] = molecular target: HIV-1 envelope glycoprotein (Env, gp120) of virus 7467 (HIV-1)
[33] = molecular target: HIV-1 envelope glycoprotein (Env, gp120) of virus THRO (HIV-1)
[34] = molecular target: HIV-1 envelope glycoprotein (Env, gp120) of virus 8176 (HIV-1)
[35] = molecular target: HIV-1 envelope glycoprotein (Env, gp120) of virus 1012 (HIV-1)
[36] = molecular target: HIV-1 envelope glycoprotein (Env, gp120) of virus 7595 (HIV-1)
[37] = molecular target: HIV-1 envelope glycoprotein (Env, gp120) of virus VS026 (HIV-1)
[38] = molecular target: HIV-1 envelope glycoprotein (Env, gp120) of virus 1489 (HIV-1)
[39] = molecular target: HIV-1 envelope glycoprotein (Env, gp120) of virus CHO77 (HIV-1)
[40] = molecular target: HIV-1 envelope glycoprotein (Env, gp120) of virus 7714 (HIV-1)
[41] = molecular target: HIV-1 envelope glycoprotein (Env, gp120) of virus 92US727 (HIV-1)
[42] = molecular target: HIV-1 envelope glycoprotein (Env, gp120) of virus 302076 (HIV-1)
[43] = molecular target: HIV-1 envelope glycoprotein (Env, gp120) of virus REJO (HIV-1)
[44] = molecular target: HIV-1 envelope glycoprotein (Env, gp120) of virus 1003 (HIV-1)

B1: Antibody A-1 (antibody, human IgG1, kappa)
heavy: QVQLLQSGAAVTKPGASVRVSCEASGYNIRDYFIHWWRQAPGQGLQWVGWINPKTGQPNNPRQFQGRVSLTRHASWDFDTFSFYMDLKALRSDDTAVYFCARQRSDYWDFDVWGSGTQVTVSSASTKGPSVFPLAPSSKSTSGGTAALGCLVKDYFPEPVTVSWNSGALTSGVHTFPAVLQSSGLYSLSSVVTVPSSSLGTQTYICNVNHKPSNTKVDKKVEPKSCDKTHTCPPCPAPELLAGPDVFLFPPKPKDTLMISRTPEVTCVVVDVSHEDPEVKFNWYVDGVEVHNAKTKPREEQYNSTYRVVSVLTVLHQDWLNGKEYKCKVSNKALPLPEEKTISKAKGQPREPQVYTLPPSREEMTKNQVSLTCLVKGFYPSDIAVEWESNGQPENNYKTTPPVLDSDGSFFLYSKLTVDKSRWQQGNVFSCSVLHEALHSHYTQKSLSLSPGK
light: DIQMTQSPSSLSASVGDTVTITCQANGYLNWYQQRRGKAPKLLIYDGSKLERGVPSRFSGRRWGQEYNLTINNLQPEDIATYFCQVYEFVVPGTRLDLKRTVAAPSVFIFPPSDEQLKSGTASVVCLLNNFYPREAKVQWKVDNALQSGNSQESVTEQDSKDSTYSLSSTLTLSKADYEKHKVYACEVTHQGLSSPVTKSFNRGEC
[1]
  Median IC95 (neutralization): 1.09 µg/mL

B2: 1.52.90-1 (antibody, V domains shown)
VH: QVQLLQSGAAVTKPGASVRVSCEASGYNIRDYFIHWWRQAPGQGLQWVGWINPKTGQPNNPRQFQGRVSLTRHASFDFDTFSFYMDLKALRSDDTAVYFCARQRSDYWDFDVWGSGTQVTVSS
VL: DIQMTQSPSSLSASVGDRATITCQANGYLNWYQQRRGKAPKLLIYDGSKLERGVPSRFSGSRWGQEYNLTISSLQPEDIATYFCQVYEFFGPGTRLDLKR
[2]
  Breadth (% viruses neutralized with an IC95 ≤ 50 µg/mL): 78%
  Geomean IC95 (neutralization): 4.56 µg/mL
  Median IC95 (neutralization): 4.42 µg/mL

B3: Antibody 1.36.35-1 (antibody, human IgG1, kappa, V domains shown)
VH: QVQLVQSGAEVKKPGASVRVSCKASGYNIRDYFMHWWRQAPGQGLQWVGWINPKTGQPNNPRQFQGRVTMTRHASWDFDTFSAYMDLSRLRSDDTATYFCARQRTDYWDFDVWGQGTMVTVSS
VL: DIQMTQSPSSLSASVGDRVTITCQANGYLNWYQQKPGKAPKLLIYDGSNLETGVPSRFSGSRWGQEYTLTISSLQPEDIATYFCQVYEFVGPGTNLDIKR
[3]
  Virus Neutralization Potency (IC50): > 20 µg/mL
[4]
  Virus Neutralization Potency (IC50): 0.32 µg/mL
[5]
  Virus Neutralization Potency (IC50): 5.37 µg/mL

B4: Antibody 1.1.119-1 (antibody, human IgG1, kappa, V domains shown)
VH: QVQLLQSGAAVTKPGASVRVSCEASGYNIRDYFIHWWRQAPGQGLQWVGWINPKTGQPNNPRQFQGRVSLTRHASWDFDTFSFYMDLKALRSDDTAVYFCARQRSDYWDFDVWGSGTQVTVSS
VL: DIQMTQSPSSLSASVGDRATITCQANGYLNWYQQRRGKAPKLLIYDGSKLERGVPSRFSGSRWGQEYTLTISSLQPEDIATYFCQVYEFFGPGTRLDLKR
[6]
  Virus Neutralization Potency: 1.44 µg/mL
[7]
  Virus Neutralization Potency: 4.52 µg/mL
[8]
  Virus Neutralization Potency: 0.6 µg/mL
[9]
  Virus Neutralization Potency: 0.81 µg/mL
[10]
  Virus Neutralization Potency: 3.44 µg/mL
[11]
  Virus Neutralization Potency: 0.15 µg/mL
[12]
  Virus Neutralization Potency: 0.2 µg/mL
[13]
  Virus Neutralization Potency: 4.98 µg/mL
[14]
  Virus Neutralization Potency: > 80 µg/mL
[15]
  Virus Neutralization Potency: 1.47 µg/mL
[16]
  Virus Neutralization Potency: 0.03 µg/mL
[17]
  Virus Neutralization Potency: 0.37 µg/mL
[18]
  Virus Neutralization Potency: 4.96 µg/mL
[19]
  Virus Neutralization Potency: 0.03 µg/mL
[20]
  Virus Neutralization Potency: 2.37 µg/mL
[21]
  Virus Neutralization Potency: 0.13 µg/mL
[22]
  Virus Neutralization Potency: 2.75 µg/mL
[23]
  Virus Neutralization Potency: 1.89 µg/mL
[24]
  Virus Neutralization Potency: 0.42 µg/mL
[25]
  Virus Neutralization Potency: 0.3 µg/mL
[26]
  Virus Neutralization Potency: 1.66 µg/mL
[27]
  Virus Neutralization Potency: 1.16 µg/mL
[28]
  Virus Neutralization Potency: 2.19 µg/mL
[29]
  Virus Neutralization Potency: 1.08 µg/mL
[30]
  Virus Neutralization Potency: > 100 µg/mL
[31]
  Virus Neutralization Potency: 6.02 µg/mL
[32]
  Virus Neutralization Potency: 0.19 µg/mL
[33]
  Virus Neutralization Potency: 2.8 µg/mL
[34]
  Virus Neutralization Potency: 0.27 µg/mL
[35]
  Virus Neutralization Potency: 1.06 µg/mL
[36]
  Virus Neutralization Potency: 3.07 µg/mL
[37]
  Virus Neutralization Potency: 0.14 µg/mL
[38]
  Virus Neutralization Potency: 0.17 µg/mL
[39]
  Virus Neutralization Potency: 0.02 µg/mL
[40]
  Virus Neutralization Potency: 1.93 µg/mL
[41]
  Virus Neutralization Potency: 43.7 µg/mL
[42]
  Virus Neutralization Potency: 0.08 µg/mL
[43]
  Virus Neutralization Potency: 0.03 µg/mL
[44]
  Virus Neutralization Potency: 0.91 µg/mL

B5: Antibody 1.1.104-1 (antibody, human IgG1, kappa, V domains shown)
VH: QVQLLQSGAAVTKPGASVRVSCEASGYNIRDYFIHWWRQAPGQGLQWVGWINPKTGQPNNPRQFQGRVSLTRHASWDFDTFSFYMDLKALRSDDTAVYFCARQRSDYWDFDVWGSGTQVTVSS
VL: DIQMTQSPSSLSASVGDTATITCQANGYLNWYQQRRGKAPKLLIYDGSKLERGVPSRFSGRRWGQEYTLTINNLQPEDIATYFCQVYEFFGPGTRLDLKR
[6]
  Virus Neutralization Potency: 2.8 µg/mL
[7]
  Virus Neutralization Potency: 4.34 µg/mL
[8]
  Virus Neutralization Potency: 1.1 µg/mL
[9]
  Virus Neutralization Potency: 1.49 µg/mL
[10]
  Virus Neutralization Potency: 6.07 µg/mL
[11]
  Virus Neutralization Potency: 0.28 µg/mL
[12]
  Virus Neutralization Potency: 0.28 µg/mL
[13]
  Virus Neutralization Potency: 6.57 µg/mL
[14]
  Virus Neutralization Potency: > 80 µg/mL
[15]
  Virus Neutralization Potency: 4.34 µg/mL
[16]
  Virus Neutralization Potency: 0.03 µg/mL
[17]
  Virus Neutralization Potency: 0.34 µg/mL
[18]
  Virus Neutralization Potency: 7.9 µg/mL
[19]
  Virus Neutralization Potency: 0.04 µg/mL
[20]
  Virus Neutralization Potency: 4.19 µg/mL
[21]
  Virus Neutralization Potency: 0.1 µg/mL
[22]
  Virus Neutralization Potency: 2.33 µg/mL
[23]
  Virus Neutralization Potency: 1.32 µg/mL
[24]
  Virus Neutralization Potency: 0.32 µg/mL
[25]
  Virus Neutralization Potency: 0.36 µg/mL
[26]
  Virus Neutralization Potency: 1.22 µg/mL
[27]
  Virus Neutralization Potency: 1.82 µg/mL
[28]
  Virus Neutralization Potency: 2.33 µg/mL
[29]
  Virus Neutralization Potency: 0.67 µg/mL
[30]
  Virus Neutralization Potency: > 100 µg/mL
[31]
  Virus Neutralization Potency: 4.8 µg/mL
[32]
  Virus Neutralization Potency: 0.06 µg/mL
[33]
  Virus Neutralization Potency: 4.27 µg/mL
[34]
  Virus Neutralization Potency: 0.16 µg/mL
[35]
  Virus Neutralization Potency: 2.87 µg/mL
[36]
  Virus Neutralization Potency: 8.47 µg/mL
[37]
  Virus Neutralization Potency: 0.19 µg/mL
[38]
  Virus Neutralization Potency: 0.28 µg/mL
[39]
  Virus Neutralization Potency: 0.03 µg/mL
[41]
  Virus Neutralization Potency: 10.6 µg/mL
[42]
  Virus Neutralization Potency: 0.1 µg/mL
[43]
  Virus Neutralization Potency: 0.02 µg/mL
[44]
  Virus Neutralization Potency: 1.44 µg/mL
